In article PMC9364107 (The Journal of Biological Chemistry, 2022):
Numbering of substitutions follows the chain as printed. Numbers in names are those of the source. Blank lines part the entries; values can stand above or below the binder they belong to.

Molecular target: T1, SF3B1 ULM5 peptide (residues 333–351), wildtype (human, UniProt O75533-1 333-351)
T1 peptide: KRKSRWDETPASQMGGSTP
Experiment: ITC

fold reduction in binding affinity against wildtype U2AF2 UHM: ~20 fold
B1: U2AF2 UHM E394K (domain or fragment)
chain: TEVLCLMNMVLPEELLDDEKYEEIVEDVRDECSKYGLVKSIEIPRPVDGVEVPGCGKIFVEFTSVFDCQKAMQGLTGRKFANRVVVTKYCDPDSYHRRDFW

fold reduction in binding affinity against wildtype U2AF2 UHM: 4 fold
B2: U2AF2 UHM K453A (domain or fragment)
chain: B1 chain with K20E, K79A

fold reduction in binding affinity against wildtype U2AF2 UHM: ~100 fold
B3: U2AF2 UHM E397K (domain or fragment)
chain: B1 chain with K20E, E23K
